T1: SigB (residues 1–262) (Bacillus subtilis strain 168, UniProt P06574 1-262)
T1 construct: RNA polymerase sigma-B factor SigB, Bacillus subtilis strain 168, residues 1-262; also called alternative sigma factor SigB; source: E. coli BL21 Star (DE3), co-expressed with RsbW (modified pETDuet-1), co-purified as RsbW–SigB complex
T1 sequence (looked up): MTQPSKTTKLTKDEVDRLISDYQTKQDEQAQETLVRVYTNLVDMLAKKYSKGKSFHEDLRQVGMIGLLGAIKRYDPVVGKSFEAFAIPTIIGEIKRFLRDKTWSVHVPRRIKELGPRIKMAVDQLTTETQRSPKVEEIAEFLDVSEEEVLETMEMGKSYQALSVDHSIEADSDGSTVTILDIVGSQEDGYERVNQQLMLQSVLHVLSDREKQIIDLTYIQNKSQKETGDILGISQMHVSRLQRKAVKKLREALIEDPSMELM

B1: RsbV (residues 1–109) (natural protein, Bacillus subtilis strain 168, UniProt P17903 1-109, looked up)
chain: MNINVDVKQNENDIQVNIAGEIDVYSAPVLREKLVPLAEQGADLRICLKDVSYMDSTGLGVFVGTFKMVKKQGGSLKLENLSERLIRLFDITGLKDIIDISAKSEGGVQ
notes: Anti-anti-sigma-B factor RsbV, Bacillus subtilis strain 168, residues 1-109 (called full-length); Tag removed with TEV protease; also called full-length RsbV; anti-anti-sigma factor RsbV; source: E. coli BL21 Star (DE3); co-expressed with RsbW (modified pETDuet-1) or expressed alone (modified pET-28b); purified (HisTrap, TEV cleavage, SEC); not shown: His6, N-terminal, cleaved; thioredoxin, …
B2: RsbW (residues 1–160), expressed alone (natural protein, Bacillus subtilis strain 168, UniProt P17904 1-160, looked up)
chain: MKNNADYIEMKVPAQPEYVGIIRLTLSGVASRMGYTYDEIEDLKIAVSEACTNAVQHAYKEDKNGEVSIRFGVFEDRLEVIVADEGDSFDFDQKQQDLGPYTPSHTVDQLSEGGLGLYLMETLMDEVRVQNHSGVTVAMTKYLNGERVDHDTTIKNYETN
notes: Anti-sigma-B factor RsbW, Bacillus subtilis strain 168, residues 1-160; 'RsbV and RsbW alone were similarly expressed and purified following the same procedures'; also called RsbW alone; source: E. coli BL21 Star (DE3), modified pET-28b, purified (HisTrap, TEV cleavage, Superdex 75 SEC); not shown: His6, N-terminal, cleaved; thioredoxin, N-terminal, cleaved
B3: RsbW (residues 1–160), co-expressed with SigB (natural protein, Bacillus subtilis strain 168, UniProt P17904 1-160, looked up)
chain: B2 chain
notes: Anti-sigma-B factor RsbW, Bacillus subtilis strain 168, residues 1-160; source: E. coli BL21 Star (DE3), co-expressed with SigB (modified pETDuet-1), co-purified as RsbW–SigB complex
B4: RsbW (residues 1–160), co-expressed with RsbV (natural protein, Bacillus subtilis strain 168, UniProt P17904 1-160, looked up)
chain: B2 chain
notes: Serine-protein kinase / anti-sigma-B factor RsbW, Bacillus subtilis strain 168, residues 1-160 (called full-length); Four copies stand in the RsbV–RsbW octamer; also called full-length RsbW; anti-sigma factor RsbW
B5: RsbW_(5–145) (residues 5–145) (domain or fragment, Bacillus subtilis strain 168, UniProt P17904 5-145, looked up)
chain: ADYIEMKVPAQPEYVGIIRLTLSGVASRMGYTYDEIEDLKIAVSEACTNAVQHAYKEDKNGEVSIRFGVFEDRLEVIVADEGDSFDFDQKQQDLGPYTPSHTVDQLSEGGLGLYLMETLMDEVRVQNHSGVTVAMTKYLNG
notes: Residues 59–64 and 85–113 (monoclinic) or 86–109 (hexagonal) are not visible in the crystal structures; also called truncated RsbW

Experiments:
[1] = target: B4; assay: AF4-MALS; co-purified complexes or RsbW alone in phosphate-buffered saline pH 7.4; 50 µl injected; details: both partners purified
[2] = target: the molecule itself; assay: as above
SigB (residues 1–262) = target: T1, SigB (residues 1–262); assay: as above; details: both partners purified
[3] = target: the molecule itself; assay: crystal structure; RsbV_(1–104)–RsbW_(5–145) complex; monoclinic crystals (25% PEG 1500, 100 mM SPG pH 8.5, 3.4 Å) and hexagonal crystals (20% PEG 3350, 200 mM potassium formate, excess ADP, 3.1 Å), 20°C

Binder	stoichiometry N [2]	also measured
B1	–	stoichiometry N [1]: 1 RsbV per RsbW
B2	4	–
B3	4	stoichiometry N (SigB (residues 1–262)): 2 RsbW per SigB
B4	4	–
B5	–	stoichiometry N [3]: 4
